Values of other authors as cited in US11911476B2, “Process for preparing a drug delivery composition” (PK MED SAS, priority 2017, dated 2024).

Conditions: temperature at which half of the drug loses its activity

Substance	denaturation temperature
Adalimumab	about 75 °C
lysozyme	76 °C
